Measured values taken from US20190040143A1.

Molecular target: human HER3 on human cancer cell lines (human) (UniProt P21860)
Assay: cell-based or functional assay

maximal extent of pHER3 suppression, Kato III cells: 60% | potency in pHER3 ELISA, HCC827 cells, against 2C2 (fold less potent): 10
Substance: U1-59 anti-HER3 monoclonal antibody (International Patent Publication WO 2007077028)
